Laboratory results from patent publication US7220539.
Each block holds one substance with its values, some of them ahead of it.

Assays:
TRB-2 = system: T1, TRB-2
T1 sequence: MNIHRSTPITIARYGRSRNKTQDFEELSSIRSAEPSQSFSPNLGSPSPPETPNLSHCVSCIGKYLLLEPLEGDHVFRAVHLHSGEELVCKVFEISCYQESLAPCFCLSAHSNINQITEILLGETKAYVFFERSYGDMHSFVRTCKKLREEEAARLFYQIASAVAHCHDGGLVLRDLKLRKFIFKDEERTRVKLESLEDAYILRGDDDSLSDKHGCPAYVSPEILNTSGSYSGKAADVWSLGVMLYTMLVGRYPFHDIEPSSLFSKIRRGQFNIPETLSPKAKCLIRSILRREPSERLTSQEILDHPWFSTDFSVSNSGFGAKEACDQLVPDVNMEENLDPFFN

[1] = system: TRB-3 (wild-type, recombinant; tag and species not stated)
[2] = biological target: Akt (over-expressed or present in transfected cells; isoform and tag not stated); assay: cell-based or functional assay
[3] = biological target: GAL4 ΔPH (amino acids 150-480) Akt construct (yeast) (UniProt P04386); assay: cell-based or functional assay
Chain of UniProt P04386 (P04386 1-147, stated change not applied): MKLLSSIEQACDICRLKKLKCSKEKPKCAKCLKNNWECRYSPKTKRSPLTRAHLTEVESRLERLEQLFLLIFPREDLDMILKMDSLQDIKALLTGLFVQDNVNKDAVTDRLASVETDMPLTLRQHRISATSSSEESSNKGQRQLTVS

Substance: Akt (over-expressed or present in transfected cells; isoform and tag not stated)
- phosphorylation of Akt (TRB-2): TRB-2 was similarly effective at blocking Akt phosphorylation

Substance: HA-tagged Akt1
- Akt activity, in vitro kinase assays with a consensus Akt peptide substrate [1]: Over-expression of TRB-3 reduced Akt activity

- forkhead (Foxo1) activity on an IGFBP1 reporter in HEK293 cells [2]: 3 fold
Substance: TRB-3 (wild-type, recombinant; tag and species not stated)

Substance: TRB-3-VP16 (from UniProt P06492 411-490)
- GAL4 luciferase reporter activity, mammalian two hybrid assay in HEK293 cells, relative to control VP16 expression vector [3]: 5 fold
